The text below walks through data of publication PMC10981699, “Caldomycin, a new guanidopolyamine produced by a novel agmatine homocoupling enzyme involved in homospermidine biosynthesis” (Scientific Reports, 2024).

Substrate in data set [1]: N=C(N)NCCCCNCCCCNC(=N)N
The data set can be described thus: urea release, Quantichrome urea assay. It is filed as biochemical, Thermus thermophilus. The settings on record: assay as in ref. 26. The text has this:
urea release, Quantichrome urea assay on TtSpeBap (aminopropylagmatine ureohydrolase)

Substrate in data set [2]: N=C(N)NCCCCN
Put plainly: homospermidine formation by HPLC, coupled with TtSpeBap. It is filed as biochemical, Thermus thermophilus. The settings on record: 50 mM Tris-HCl pH 8.5, 1 mM NAD+, 10 µM MnCl2, 65 °C, TtSpeBap as coupling enzyme, agmatine is both donor and acceptor.

B1: TtSpeBap (aminopropylagmatine ureohydrolase) (Thermus thermophilus HB8) (protein)
chain: MRLVFGEKDTPYEEARVVVLPVPYDLSLSFLPGARRGPEAILLASRELEPFLLELGAAPEEVGIHAAEPVPWVAGMAEESHRLIREEALRHLRAGKWVVALGGDHSVTHPLVQAHREALGDFSLLHVDAHADLYPEWQGSVYSHASPFYRLLTEGFPLVQVGIRAMDRDSLRLARKKGVALFPAHRIHREGLPLDEILRALGKRVYISLDFDALDPSLMPSVGTPLPGGLSYRQVVDLLEAVFREKEVVGMDFVELSPNGQFHAEMTAAQLVYHAIGLKGLQAGWLSREVDHI
Consider B1, for which, in data set [1], the Km was determined as 3840 ± 840 µM, the Vmax is 2920 µmol/min/mg, the kcat was determined as 1580 ± 230 s⁻¹ and the kcat/Km came out at 419000 ± 32000 M⁻¹ s⁻¹.

B2: CdmS (caldomycin synthase) (Thermus thermophilus HB8; V6M) (protein)
chain: MQKKELLSTPVVPIDIKAFDAGPILEAMGKTAFQARNLHRAAEIYLRMLEDDCAVILTLAGSLVSAGQGLIVHDLIRKGLVDVIVATGANIVDQDFFEALGHRHYQGDPRADDEALRRLWIDRIYDTYIDEEELRHTDYTVAEIADGLEPRPYSSREFIWHMGRYLAERGLGEKSIVRAAYEEGVPIFVPAFSDSSAGFGLVYHQVKRPEAHVTIDSVADFRELTEIKLKAGTTGLVMLGGGVPKNFAQDIVVAAEVLGHRVEMHKYAIQITVADERDGGLSGSTLSEAQSWGKVDARLSQMVFAEATLAFPLLASYVWHRAPARAKRRYAELFREKAPA
notes: full-length gene in pET21b (NdeI/EcoRI), E. coli BL21(DE3) pLysS; no tag stated; heat treatment and Butyl column; 38 kDa on SDS-PAGE
Regarding B2, the Michaelis constant (Km) in data set [2] is 95 ± 6 µM.
